T1: human CD70, full length, on CHO cells (CHO-human CD70-B07) (human, UniProt P32970 1-193)
T1 construct: whole, on cells; Stably transfected CHO cells; also called CHO-CD70
T1 sequence (looked up): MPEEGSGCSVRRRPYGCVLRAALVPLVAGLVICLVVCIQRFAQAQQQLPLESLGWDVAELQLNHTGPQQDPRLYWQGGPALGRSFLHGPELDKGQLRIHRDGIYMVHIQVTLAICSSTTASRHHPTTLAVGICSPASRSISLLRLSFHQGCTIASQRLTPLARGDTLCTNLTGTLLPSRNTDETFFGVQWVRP

T2: cynomolgus monkey CD70, full length, on CHO cells (CHO-monkey CD70-D01) (cynomolgus monkey, UniProt A0A2K5WTU9 1-190)
T2 construct: whole, on cells; Stably transfected CHO cells; also called CHO-cynomolgus monkey CD70
T2 sequence: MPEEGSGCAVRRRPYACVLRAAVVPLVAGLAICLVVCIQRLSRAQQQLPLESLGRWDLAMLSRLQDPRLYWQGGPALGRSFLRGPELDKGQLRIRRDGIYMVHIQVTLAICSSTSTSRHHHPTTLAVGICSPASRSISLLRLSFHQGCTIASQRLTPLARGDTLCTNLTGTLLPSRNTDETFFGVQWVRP

T3: recombinant trimeric protein of human CD70 extracellular region (human CD70 mIgG Fc (knob) / mouse IgG Fc … (human, UniProt P01863 98-330 = IgG part))
T3 construct: The ELISA and Octet texts say only 'recombinant CD70 protein' / 'CM352 antigen'; also called recombinant human CD70 protein; recombinant CD70 protein
T3 chain 1: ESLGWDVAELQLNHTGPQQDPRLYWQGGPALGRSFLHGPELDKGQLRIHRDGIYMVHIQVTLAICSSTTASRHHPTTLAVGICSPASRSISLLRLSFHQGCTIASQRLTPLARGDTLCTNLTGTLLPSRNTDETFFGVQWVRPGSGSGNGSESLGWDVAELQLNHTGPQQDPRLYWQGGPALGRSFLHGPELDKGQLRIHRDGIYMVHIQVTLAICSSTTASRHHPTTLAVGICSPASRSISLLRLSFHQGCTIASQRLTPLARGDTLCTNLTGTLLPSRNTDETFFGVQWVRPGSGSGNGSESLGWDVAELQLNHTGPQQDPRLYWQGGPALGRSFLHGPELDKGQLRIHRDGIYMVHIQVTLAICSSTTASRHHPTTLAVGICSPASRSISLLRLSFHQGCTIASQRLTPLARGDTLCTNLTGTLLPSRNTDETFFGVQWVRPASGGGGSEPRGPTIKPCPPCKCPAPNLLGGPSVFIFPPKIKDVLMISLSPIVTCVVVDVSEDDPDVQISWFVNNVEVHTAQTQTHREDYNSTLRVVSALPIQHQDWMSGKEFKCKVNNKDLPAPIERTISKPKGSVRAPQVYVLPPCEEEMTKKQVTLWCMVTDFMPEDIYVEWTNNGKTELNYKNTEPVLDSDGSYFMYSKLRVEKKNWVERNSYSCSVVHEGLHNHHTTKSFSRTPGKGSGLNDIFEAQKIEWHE
T3 chain 2: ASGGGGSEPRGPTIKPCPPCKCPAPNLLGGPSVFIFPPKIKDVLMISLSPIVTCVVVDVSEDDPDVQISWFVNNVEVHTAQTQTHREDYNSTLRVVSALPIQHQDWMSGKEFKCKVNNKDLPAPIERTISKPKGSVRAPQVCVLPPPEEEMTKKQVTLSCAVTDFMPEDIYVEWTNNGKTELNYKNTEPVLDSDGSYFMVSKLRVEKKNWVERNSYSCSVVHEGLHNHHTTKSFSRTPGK

T4: recombinant cynomolgus monkey CD70 protein (cynomolgus monkey, UniProt A0A2K5WTU9 39-190)
T4 construct: it stands only in column heads ('Monkey', 'Cynomolgus Monkey CD70/CD27') and in result sentences; also called Monkey (ELISA)
T4 sequence: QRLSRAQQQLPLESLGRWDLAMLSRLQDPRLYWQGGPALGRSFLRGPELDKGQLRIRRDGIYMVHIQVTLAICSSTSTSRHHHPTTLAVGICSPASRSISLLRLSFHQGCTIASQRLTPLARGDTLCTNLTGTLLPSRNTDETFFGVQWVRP


What was measured:
[1] = target: T1, human CD70, full length, on CHO cells …; assay: flow cytometry, chimeric IgG on CHO-human CD70 cells
Protocol: (§1) Different cells in logarithmic growth phase were taken, blocked with 3% BSA for 30 minutes, and plated to a 96-well U-plate at 5×10⁴ cells/100 μL. The centrifuge was performed at 1100 rpm for 3 minutes. The supernatant was discarded and the cells were gently tapped to be loosening. 50 μL of gradient diluted antibody was added (antibody concentration: from 30 μg/mL, 3-fold dilution for 5 gradients) per well, and incubated at 4° C. for 1 hour. After incubation, 180 μL of 0.5% BSA was added to each well for washing 3 times. 30 μL/well of secondary antibody AlexaFluro647 anti-human IgG (Jackson Immuno Research, Cat. No: 109-606-170) was added and incubated at 4° C. for 45 minutes. At the end of the incubation, each well was washed 3 times with 180 μL of 0.5% BSA and finally resuspended in 50 μL of PBS for iQue (Intellicyt, USA) assay.

[2] = target: T2, cynomolgus monkey CD70, full length, on …; assay: flow cytometry, chimeric IgG on CHO-cynomolgus monkey CD70 cells
Protocol: as §1

[3] = target: T3, recombinant trimeric protein of human …; assay: competition ELISA, chimeric IgG titrated, CD27 coated, biotin-CD70, human pair
Protocol: (§2) The recombinant CD27 protein was coated at 1 μg/mL in a 96-well microtiter plate and incubated overnight at 4° C. The next day, the plate was washed 3 times with PBS, added with 200 μL of 2% defatted dry milk/PBS, blocked at room temperature for 2 hours, and washed once with PBS. The purified chimeric antibody was divided to 12 concentration gradients starting at 100 nM and diluted in a 1:3 gradient. […] of the antibody was added per well and incubated at room temperature for 30 minutes. […] The plate was washed 3 times with PBST and PBS and dried by spinning. A secondary antibody Streptavidin-coupled horseradish peroxidase SA-HRP (BD bioscience, cat. No: 6222697) was diluted with 0.5% BSA in a ratio of 1:8000. 100 μL of the diluent was added into each well and incubated at room temperature for 30 minutes. The plate was washed 3 times with PBST and PBS and dried by spinning. 100 μl of color development solution (TMB solution, Sigma, Cat. No: T2885) was added into each well and protected from light at 37° C. for reaction. After the substrate developed moderately, 50 μl of H₂SO₄ was added into each well to terminate the reaction. The OD450 nm was determined by using an enzyme-linked detector within 30 minutes, and the data was collected. The results were calculated by using Graph Pad Prism 5 software.

[4] = target: T4, recombinant cynomolgus monkey CD70 …; assay: competition ELISA, chimeric IgG titrated, CD27 coated, biotin-CD70, cynomolgus pair
Protocol: as §2

[5] = target: T3, recombinant trimeric protein of human …; assay: cell-based or functional assay
[6] = target: T1, human CD70, full length, on CHO cells …; assay: flow cytometry, humanized IgG1 on CHO-human CD70 cells
Protocol: (§3) The supernatant was discarded and the cells were gently tapped to be loosening. 50 μL of gradient diluted antibodies were added (antibody concentration: from 30 μg/mL, 3-fold dilution for 8 gradients) per well, and incubated at 4° C. for 1 hour. After incubation, 200 μL of 0.5% BSA was added to each well for washing 3 times. 50 μL/well of secondary antibody Alexa Fluro647 anti-human IgG (Jackson ImmunoResearch, Cat. No: 109-606-170) was added and incubated at 4° C. for 45 minutes. At the end of the incubation, each well was washed 3 times with 180 μL of 0.5% BSA and finally resuspended in 50 μL of PBS for iQue (Intellicyt) assay.

[7] = target: T2, cynomolgus monkey CD70, full length, on …; assay: flow cytometry, humanized IgG1 on CHO-cynomolgus monkey CD70 cells
Protocol: as §3

[8] = target: T3, recombinant trimeric protein of human …; assay: competition ELISA, humanized IgG1 titrated, CD27 coated, biotin-CD70, human pair
Protocol: The recombinant human CD27 protein was coated at 1 μg/mL in a 96-well microtiter plate and incubated overnight at 4° C. The next day, the plate was washed 3 times with PBS, added with 200 μL of 2% defatted dry milk/PBS, blocked at room temperature for 2 hours, and washed once with PBS. […] 30 μl of the antibody was added per well and incubated at room temperature for 30 minutes. […] The plate was washed 3 times with PBST and PBS and dried by spinning. A secondary antibody solution Streptavidin-coupled horseradish peroxidase SA-HRP (BD bioscience, Cat. No: 6222697) was diluted with 0.5% BSA in a ratio of 1:8000. 100 μL of the diluent was added into each well and incubated at room temperature for 30 minutes. The plate was washed 3 times with PBST and PBS and dried by spinning. […] of color development solution (TMB solution, Sigma, Cat. No: T2885) was added into each well and protected from light at 37° C. for reaction. After the substrate developed moderately, […] of H₂SO₄ was added into each well to terminate the reaction. The OD450 nm was determined using an enzyme-linked detector within 30 minutes, and the data was collected. The results were calculated by using Graph Pad Prism 5 software. See FIG. 10-1, 10-2, and Table 12 for the results.

[9] = target: T4, recombinant cynomolgus monkey CD70 …; assay: competition ELISA, humanized IgG1 titrated, CD27 coated, biotin-CD70, cynomolgus pair

Row | Binder | EC50 [1] | EC50 [2] | IC50 [3] | IC50 [4] | Inhibition of IL-8 secretion IC50(nM), HT1080-human CD27 cells stimulated with recombinant human CD70 [5] | EC50 [6] | EC50 [7] | IC50 [8] | IC50 [9]
1 | 26G11 chimeric antibody (antibody, V domains shown) VH: QVQLQQSGPELVKPGASVKISCKTSGYTFADYTMHWVRQSQGKSLEWIGDIYPNDGGPNNNQKFKDKATLTVDKSSSTAYMELRSLTSEDSAVYYCARPFYYGNYAGFAFWGQGTLVTVSA VL: EMVLTQSPAIMSASPGEKVTMTCSASSSVSYMYWYQQKPGSSPRLLIYDTSNLASGVPVRFSGSGSGTSYSLTISRMEAEDAATYYCQQWSSYPLTFGAGTRLEIK | 22.5 nM | 21 nM | 0.17 nM | 0.21 nM |  |  |  |  | 
2 | humanized antibody Ab007 (antibody, human IgG1, V domains shown, also called Ab007 IgG1; h39H5 VHv3 + h39H5 VKv1) VH: QVQLVQSGSELKKPGASVKVSCKASGYTFTNYGMNWVRQAPGQGLEWMGWINTYTGEPTYADGFTGRFVFSLDTSASTAYLQISSLKAEDTAVYYCAREEDYRYVFNYWGQGTLVTVSS VL: DIQMTQSPSSLSASVGDRVTITCQASQDISNYLNWYQQKPGKAPKLLIYDTSRLHAGVPSRFSGSGSGTDYTFTISSLQPEDIATYFCQQGVTLPLTFGQGTKLEIK |  |  |  |  | 9.92 nM | 2.57 nM | 3.14 nM | 0.04 nM | 0.05 nM

Results, then the binder that gave them:

Row | EC50 [1] | EC50 [2] | IC50 [3] | IC50 [4] | Inhibition of IL-8 secretion IC50(nM), HT1080-human CD27 cells stimulated with recombinant human CD70 [5] | EC50 [6] | EC50 [7] | IC50 [8] | IC50 [9] | Binder
3 | 16.1 nM | 17.4 nM | 0.16 nM | 0.15 nM |  |  |  |  |  | 25H7 chimeric antibody (antibody, V domains shown) VH: EIQLVQSGPELKKPGETVKISCKASGYTFTNYGMNWVKQTPGKGLKWMGWINTDTGEPTYADDFKGRFAFSLETSASTAYLQINNLKNEDMATYFCAREEDYRYVFNYWGQGTTLTVSS VL: DIQMTQTTSSLSASLGDRVTISCRASQDISNYLNWYQQKPDGTVKLLIYYTSRLHSGVPSRFSGSGSGTDYSLTISNLEQEDIATYFCQQGVTLPLTFGAGTKLELK
4 |  |  |  |  | 10.7 nM | 2 nM | 5.78 nM | 0.04 nM | 0.05 nM | humanized antibody Ab001 (antibody, human IgG1, V domains shown, also called h39H5 VHv1 + h39H5 VKv1) VH: QIQLVQSGSELKKPGASVKVSCKASGYTFTNYGMNWVRQAPGQGLEWMGWINTYTGEPTYADGFTGRFVFSLDTSASTAYLQISSLKAEDTAVYFCAREEDYRYVFNYWGQGTLVTVSS VL: DIQMTQSPSSLSASVGDRVTITCQASQDISNYLNWYQQKPGKAPKLLIYDTSRLHAGVPSRFSGSGSGTDYTFTISSLQPEDIATYFCQQGVTLPLTFGQGTKLEIK
